# Laboratory results taken from IntAct's records for PubMed 10648618.
# B1: Carbon catabolite-derepressing protein kinase (Saccharomyces cerevisiae), P06782 (parent)
# chain: MSSNNNTNTAPANANSSHHHHHHHHHHHHHGHGGSNSTLNNPKSSLADGAHIGNYQIVKTLGEGSFGKVKLAYHTTTGQKVALKIINKKVLAKSDMQGRIEREISYLRLLRHPHIIKLYDVIKSKDEIIMVIEYAGNELFDYIVQRDKMSEQEARRFFQQIISAVEYCHRHKIVHRDLKPENLLLDEHLNVKIADFGLSNIMTDGNFLKTSCGSPNYAAPEVISGKLYAGPEVDVWSCGVILYVMLCRRLPFDDESIPVLFKNISNGVYTLPKFLSPGAAGLIKRMLIVNPLNRISIHEIMQDDWFKVDLPEYLLPPDLKPHPEEENENNDSKKDGSSPDNDEIDDNLVNILSSTMGYEKDEIYESLESSEDTPAFNEIRDAYMLIKENKSLIKDMKANKSVSDELDTFLSQSPPTFQQQSKSHQKSQVDHETAKQHARRMASAITQQRTYHQSPFMDQYKEEDSTVSILPTSLPQIHRANMLAQGSPAASKISPLVTKKSKTRWHFGIRSRSYPLDVMGEIYIALKNLGAEWAKPSEEDLWTIKLRWKYDIGNKTNTNEKIPDLMKMVIQLFQIETNNYLVDFKFDGWESSYGDDTTVSNISEDEMSTFSAYPFLHLTTKLIMELAVNSQSN
# partner: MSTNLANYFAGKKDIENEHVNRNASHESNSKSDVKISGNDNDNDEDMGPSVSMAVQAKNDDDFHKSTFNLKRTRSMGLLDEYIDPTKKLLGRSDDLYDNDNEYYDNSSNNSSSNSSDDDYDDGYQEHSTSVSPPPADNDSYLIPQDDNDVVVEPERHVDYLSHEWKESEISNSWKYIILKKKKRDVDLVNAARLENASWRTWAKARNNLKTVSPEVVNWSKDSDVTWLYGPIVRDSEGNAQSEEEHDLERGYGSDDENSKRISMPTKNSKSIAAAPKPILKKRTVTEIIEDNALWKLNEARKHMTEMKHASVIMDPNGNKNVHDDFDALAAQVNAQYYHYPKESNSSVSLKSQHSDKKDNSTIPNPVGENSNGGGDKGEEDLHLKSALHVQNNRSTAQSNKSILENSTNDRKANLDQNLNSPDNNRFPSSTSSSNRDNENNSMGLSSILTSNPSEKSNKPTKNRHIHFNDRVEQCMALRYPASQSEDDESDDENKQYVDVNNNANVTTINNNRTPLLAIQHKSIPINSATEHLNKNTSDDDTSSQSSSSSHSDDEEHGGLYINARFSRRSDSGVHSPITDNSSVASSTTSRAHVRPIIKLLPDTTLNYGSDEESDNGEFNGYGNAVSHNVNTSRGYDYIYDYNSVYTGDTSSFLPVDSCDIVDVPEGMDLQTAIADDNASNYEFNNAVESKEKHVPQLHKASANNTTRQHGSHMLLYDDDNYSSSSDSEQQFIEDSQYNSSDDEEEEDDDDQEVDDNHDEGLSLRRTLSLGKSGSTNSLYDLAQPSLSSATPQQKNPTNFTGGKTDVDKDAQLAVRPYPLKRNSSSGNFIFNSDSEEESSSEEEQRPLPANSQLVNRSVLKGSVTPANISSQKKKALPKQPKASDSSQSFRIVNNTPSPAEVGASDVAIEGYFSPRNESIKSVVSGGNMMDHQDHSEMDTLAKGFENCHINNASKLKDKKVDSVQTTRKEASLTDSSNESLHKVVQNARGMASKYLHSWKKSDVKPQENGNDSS
# Variants of: B1
# Details: with reg1_yeast REG1, Q00816
row,effect of a mutation on the interaction,Variant
1,with no effect,K84R

# Variants of: B1
# Details: with reg1_yeast REG1, Q00816
# Remark: another data set of the same source
row,effect of a mutation on the interaction,Variant
1,increasing interaction strength,K84R
